According to publication PMC6882843:

Molecular target: ToxT from Vibrio cholerae serogroup O42 strain SCE-256, wild type, purified (Vibrio cholerae serogroup O42 strain SCE-256) (UniProt Q7BGC0)
Assay: SEC-SAXS

With “ToxT from Vibrio cholerae serogroup O42 strain SCE-256, wild type, purified (from UniProt Q7BGC0 1-276) (natural protein)” as the substance, how does the stoichiometry N read?
Its stoichiometry N is 2.
